This is an account of results in patent publication US20220096653A1, “CONJUGATE COMPRISING LIGAND AND CEACAM5 ANTIBODY FAB FRAGMENT” (ASTELLAS PHARMA INC., priority 2019, published 2022).

The labels stand for the following.
B1: [DFO-C(═O)-(CH2CH2O)4-(1,3-Ph)-C(═O)-Gly-Lys*-Z2(#S)]p-Fab^2 (Fab, V domains shown)
VH: EVQLVESGGGLVQPGGSLRLSCAASGFNIRDTYMHWVRQAPGKGLEWVARIDPANGNSRYVPKFQGRFTISADTSRNTAYLQMNSLRAEDTAVYYCAPFGYYVSDYAMAYWGQGTLVTVSS
VL: DIQLTQSPSSLSASVGDRVTITCRAGESVDIFGVGFLHWYQQKPGKAPKLLIYRASNLESGIPSRFSGSGSRTDFTLTISSLQPEDFATYYCQQTNEDPYTFGQGTKVEIKR
modifications: labeling may sit on this chain; sites not stated; labeling portion (MW 1252) bound via 2-iminothiolane-treated amino groups of the Fab, sites and chain not stated; 1-2 per Fab by MS
notes: No metal; also called Ex-No 61; Conjugate No. 61
B2: (Y-S1-X)p-Fab^2 with Y Gd/DOTA, S1 - (bond), X -Gly-Val-NH-(CH2)2-Z1(#N)- (Fab, V domains shown)
VH: B1 VH
VL: B1 VL
modifications: labeling may sit on this chain; sites not stated; labeling portion (MW 838) on amino groups of the Fab, sites and chain not stated; 1-2 per Fab by MS
notes: also called Ex-No 2; conjugate 2
B3: (Y-S1-X)p-Fab^2 with Y DFO, S1 -C(═O)-(1,3-Ph)-C(═O)-, X -Gly-Lys*Z2(#S)- (Fab, V domains shown)
VH: B1 VH
VL: B1 VL
modifications: labeling may sit on this chain; sites not stated; labeling portion (MW 1076) on amino groups of the Fab, sites and chain not stated; 1-3 per Fab by MS
notes: No metal; also called Ex-No 64; conjugate 64
B4: (Y-S1-X)p-Fab^2 with Y Gd/4arm-DOTA, S1 spacer (o), X -Met-Gly-Lys*-Z2(#N)- (Fab, V domains shown)
VH: B1 VH
VL: B1 VL
modifications: labeling may sit on this chain; sites not stated; labeling portion (MW 1304) on amino groups of the Fab, sites and chain not stated; 1-2 per Fab by MS
notes: also called Ex-No 59; conjugate 59
B5: [Gd/4arm-DOTA-CH2-(1,4-Ph)-NH-C(═S)]p-Fab^2 (Fab, V domains shown)
VH: B1 VH
VL: B1 VL
modifications: labeling may sit on this chain; sites not stated; labeling portion (MW 706) on amino groups of the Fab, sites and chain not stated; 1 per Fab by MS
notes: also called Ex-No 48; conjugate 48
B6: (Y-S1-X)p-Fab^2 with Y Gd/DOTA, S1 spacer (h), X -Met-Gly-Lys*-Z2(#N)- (Fab, V domains shown)
VH: B1 VH
VL: B1 VL
modifications: labeling may sit on this chain; sites not stated; labeling portion (MW 1090) on amino groups of the Fab, sites and chain not stated; 1-2 per Fab by MS
notes: also called Ex-No 43; conjugate 43
B7: (Y-S1-X)p-Fab^2 with Y Gd/DOTA, S1 -NH-CH2-(1,4-Ph)-C(═O)-, X -Met-Gly-Lys*-Z2(#S)- (Fab, V domains shown)
VH: B1 VH
VL: B1 VL
modifications: labeling may sit on this chain; sites not stated; labeling portion (MW 1190) on amino groups of the Fab, sites and chain not stated; 1-3 per Fab by MS
notes: also called Ex-No 38; conjugate 38
B8: (Y-S1-X)p-Fab^2 with Y Gd/DOTA, S1 - (bond), X -Gly-Lys*-Z2(#S)- (Fab, V domains shown)
VH: B1 VH
VL: B1 VL
modifications: labeling may sit on this chain; sites not stated; labeling portion (MW 926) on amino groups of the Fab, sites and chain not stated; 1-2 per Fab by MS
notes: also called Ex-No 5; conjugate 5
B9: (Y-S1-X)p-Fab^2 with Y Gd/4arm-DOTA, S1 -CH2-(1,4-Ph)-NH-C(═S)-, X -Gly-(naph-Ala)-Lys*-Z2(#N)- (Fab, V domains shown)
VH: B1 VH
VL: B1 VL
modifications: labeling may sit on this chain; sites not stated; labeling portion (MW 1187) on amino groups of the Fab, sites and chain not stated; 1-2 per Fab by MS
notes: also called Ex-No 55; conjugate 55
B10: (Y-S1-X)p-Fab^2 with Y Gd/DOTA, S1 spacer (k), X -Met-Gly-Lys*-Z2(#N)- (Fab, V domains shown)
VH: B1 VH
VL: B1 VL
modifications: labeling may sit on this chain; sites not stated; labeling portion (MW 1296) on amino groups of the Fab, sites and chain not stated; 1-2 per Fab by MS
notes: also called Ex-No 46; conjugate 46
B11: (Y-S1-X)p-Fab^2 with Y Gd/DOTA, S1 - (bond), X -Gly-Tyr*-CH2-C-(═O)-Lys*-Z2(#N)- (Fab, V domains shown)
VH: B1 VH
VL: B1 VL
modifications: labeling may sit on this chain; sites not stated; labeling portion (MW 1046) on amino groups of the Fab, sites and chain not stated; 1-3 per Fab by MS
notes: also called Ex-No 4; conjugate 4
B12: (Y-S1-X)p-Fab^2 with Y Gd/DOTA, S1 - (bond), X -Gly-Lys*-C(═S)-NH-(1,4-Ph)-NH-C(═S)- (Fab, V domains shown)
VH: B1 VH
VL: B1 VL
modifications: labeling may sit on this chain; sites not stated; labeling portion (MW 937) on amino groups of the Fab, sites and chain not stated; 1-2 per Fab by MS
notes: also called Ex-No 1; conjugate 1
B13: [Gd/DOTA-NH—CH2-(1,3-Ph)-C(═O)-Asp-Gly-Lys*-Z2(#N)]p-Fab^2 (conjugate)
heavy: EVQLVESGGGLVQPGGSLRLSCAASGFNIRDTYMHWVRQAPGKGLEWVARIDPANGNSRYVPKFQGRFTISADTSRNTAYLQMNSLRAEDTAVYYCAPFGYYVSDYAMAYWGQGTLVTVSSASTKGPSVFPLAPSSKSTSGGTAALGCLVKDYFPEPVTVSWNSGALTSGVHTFPAVLQSSGLYSLSSVVTVPSSSLGTQTYICNVNHKPSNTKVDKKVEPKSCD
light: DIQLTQSPSSLSASVGDRVTITCRAGESVDIFGVGFLHWYQQKPGKAPKLLIYRASNLESGIPSRFSGSGSRTDFTLTISSLQPEDFATYYCQQTNEDPYTFGQGTKVEIKRTVAAPSVFIFPPSDEQLKSGTASVVCLLNNFYPREAKVQWKVDNALQSGNSQESVTEQDSKDSTYSLSSTLTLSKADYEKHKVYACEVTHQGLSSPVTKSFNRGEC
B14: [Gd/DOTA-NH—CH2-(1,3-Ph)-C(═O)-Met-Gly-Lys*-Z2(#N)]p-Fab^2 (conjugate)
heavy: B13 heavy
light: B13 light

For one data set, the target named is T1, CEACAM5 (R&D Systems, 4128-CM-050) (human, UniProt P06731 35-685).
T1 construct: Immobilised on the ELISA plate; also called human CEACAM5
T1 sequence (looked up): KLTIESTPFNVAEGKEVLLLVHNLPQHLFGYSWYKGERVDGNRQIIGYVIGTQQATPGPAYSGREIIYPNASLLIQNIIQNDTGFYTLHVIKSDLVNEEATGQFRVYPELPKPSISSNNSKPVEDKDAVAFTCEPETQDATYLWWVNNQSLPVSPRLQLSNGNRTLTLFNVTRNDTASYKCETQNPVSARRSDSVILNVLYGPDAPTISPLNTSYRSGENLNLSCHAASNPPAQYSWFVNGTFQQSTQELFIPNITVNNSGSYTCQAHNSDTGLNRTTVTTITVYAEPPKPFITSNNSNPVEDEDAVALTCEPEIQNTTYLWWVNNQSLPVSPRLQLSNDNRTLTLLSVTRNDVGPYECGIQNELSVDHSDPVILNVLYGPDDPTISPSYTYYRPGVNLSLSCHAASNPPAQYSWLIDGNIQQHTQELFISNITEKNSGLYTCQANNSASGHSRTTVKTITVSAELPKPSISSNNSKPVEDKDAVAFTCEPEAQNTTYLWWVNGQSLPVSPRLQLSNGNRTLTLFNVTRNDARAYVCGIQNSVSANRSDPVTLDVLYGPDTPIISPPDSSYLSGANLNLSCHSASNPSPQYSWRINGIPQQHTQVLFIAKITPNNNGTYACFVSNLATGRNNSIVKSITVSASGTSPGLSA
Briefly: ELISA on immobilised CEACAM5, 4-parameter fit, duplicate.
Details: not given
As to the method: Each anti-human CEACAM5 antibody Fab fragment conjugate prepared in Example 2 was subjected to ELISA to evaluate the binding activity thereof to CEACAM5. In the present test, a phosphate buffer (Nacalai Tesque Inc., 0.1 mol/L-Phosphate Buffer Solution (pH 7.2)) prepared to 10 mM by diluting 10-fold with distilled water was used as a solvent for an antigen immobilization liquid, and 20×PBS/Tween 20 Buffer (Thermo Fisher Scientific Inc., 28352) diluted 20-fold with distilled water was used as a wash liquid. In addition, for bovine serum albumin (BSA) used in the present test, 30% Bovine Serum Albumin solution (Sigma-Aldrich, Inc., A9576-50ML) was added in an appropriate proportion for use. CEACAM5 (R&D Systems, 4128-CM-050) was diluted with a 10 mM phosphate buffer (pH 7.2) to 0.1 μg/mL, and added to a Nunc MaxiSorp White 384 plate (Nunc, 4603272) at 30 μL per well, and the plate was incubated overnight at 4° C. for immobilization. The CEACAM5 immobilization liquid was removed by reverse centrifugation, and then blocking was carried out by adding a PBS/Tween 20 buffer containing 5.0% BSA. Thereafter, the blocking solution was removed by reverse centrifugation, a solution of each CEACAM5 antibody Fab² fragment conjugate described above or a Fab² fragment having no labeling portion (PB009-01) as a control at about 10000 ng/mL was diluted in 14 steps by 3-fold dilution using a PBS/Tween 20 buffer containing 1.0% BSA, and 30 μL was added per well and incubated at room temperature for 60 minutes. The plate was washed 3 times with a PBS/Tween 20 buffer, and Horseradish Peroxidase (HRP)-labeled goat anti-human IgG (H+L chain) antibody (MBL Life Sciences, 206) diluted 1000-fold using a PBS/Tween 20 buffer containing 5.0% BSA was added at 30 μL per well and incubated at room temperature for 30 minutes. The plate was washed 3 times with a PBS/Tween 20 buffer, and ECL Prime Western Blotting DETECTION Reagent (GE Healthcare, RPN2232) as a substrate was added at 30 μL per well. The substrate was incubated at room temperature for 15 minutes, and then a signal value thereof was measured using an Envision counter (PerkinElmer, Inc.).
The test for each antibody was carried out in duplicate, and an EC₅₀ value was calculated using a 4-parameter logistic curve model.
(ELISA stands for enzyme-linked immunosorbent assay.)
In general, EC50 refers to the concentration giving half of the maximal effect. Read a high EC50 as weaker potency. For the molecule B1, the midpoint of the response, the EC50, lay at 0.18 nM.

For the molecule B2, the EC50 is 0.14 nM.

In turn, B3 showed an EC50 of 0.2 nM.

In turn, B4 came in with an EC50 of 0.3 nM.

In the case of B5, the EC50 amounted to 0.21 nM.

Take B6: the EC50 was determined as 0.23 nM.

Turning to B7, the EC50 is 0.18 nM.

Consider B8, for which the concentration for a half-maximal effect (EC50) is 0.14 nM.

B9: the EC50 turned out to be 0.26 nM.

As to B10, the EC50 was 0.22 nM.

Take B11: the midpoint of the response, the EC50, lay at 0.15 nM.

Turning to B12, a half-maximal effect (EC50) was put at 0.16 nM.

Tested on in another data set: not given
Test: not given
As to conditions: mouse, in vivo.
Regarding B13, the “% of dose/tissue (amount of Gd contained per kidney)” value is reported as 14.8 % of dose/tissue and the “Proportion of decrease (amount of Gd contained in the kidneys)” value is reported as 52.2%.

As for B14, the “% of dose/tissue (amount of Gd contained per kidney)” value was 15.4 % of dose/tissue and the “Proportion of decrease (amount of Gd contained in the kidneys)” value was found to be 50.3%.
